T1: full-length mouse BICD2 (mouse), Q921C5
T1 chain: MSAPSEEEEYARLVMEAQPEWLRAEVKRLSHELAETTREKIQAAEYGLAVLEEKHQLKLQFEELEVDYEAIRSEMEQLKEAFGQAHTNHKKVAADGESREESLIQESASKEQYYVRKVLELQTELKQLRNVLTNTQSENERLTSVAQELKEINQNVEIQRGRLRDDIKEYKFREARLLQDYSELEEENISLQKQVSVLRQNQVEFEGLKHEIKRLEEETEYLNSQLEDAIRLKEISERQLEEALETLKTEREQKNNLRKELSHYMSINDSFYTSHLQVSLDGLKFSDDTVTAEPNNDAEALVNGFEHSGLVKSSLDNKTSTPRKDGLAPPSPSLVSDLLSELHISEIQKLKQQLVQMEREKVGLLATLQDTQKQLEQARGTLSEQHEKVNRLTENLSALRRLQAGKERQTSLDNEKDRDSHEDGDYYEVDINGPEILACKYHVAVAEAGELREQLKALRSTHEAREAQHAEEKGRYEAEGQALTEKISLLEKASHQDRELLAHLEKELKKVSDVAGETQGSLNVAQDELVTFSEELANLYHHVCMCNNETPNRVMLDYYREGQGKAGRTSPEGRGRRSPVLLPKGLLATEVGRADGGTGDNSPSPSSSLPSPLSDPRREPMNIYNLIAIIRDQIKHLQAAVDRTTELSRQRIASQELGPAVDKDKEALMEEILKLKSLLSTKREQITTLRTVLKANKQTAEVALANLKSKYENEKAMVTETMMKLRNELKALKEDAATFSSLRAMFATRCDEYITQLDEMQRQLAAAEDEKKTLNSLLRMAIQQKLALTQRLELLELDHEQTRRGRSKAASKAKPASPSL

B1: ScaC[50-159] (domain or fragment)
chain: LRKDIAEVSKLLCMLEKSTASSKNLTMRLQQSDTRENEQSNHIRLLITEIESINKENDCLRQKNNQLKIKLHQLKVKLEQALARNTDLQQILPKSQAEMDNLRKQNEQLK
B2: CC3 of BICD1 (mouse BICD1 residues 713-802) (domain or fragment)
chain: YENEKAMVTETMTKLRNELKALKEDAATFSSLRAMFATRCDEYVTQLDEMQRQLAAAEDEKKTLNTLLRMAIQQKLALTQRLEDLEFDHE
B3: BICD2^711-800 (CC3 domain of BICD2) (domain or fragment)
chain: B2 chain with T13M, V44I, T66S, D84L, F87L
B4: Strep-BICD2^711-800 L742A/L786A (domain or fragment)
chain: B2 chain with T13M, L32A, V44I, T66S, L76A, D84L, F87L
B5: Strep-BICD2^711-800 L742A (domain or fragment)
chain: B2 chain with T13M, L32A, V44I, T66S, D84L, F87L
B6: Strep-BICD2^711-800 L786A (domain or fragment)
chain: B2 chain with T13M, V44I, T66S, L76A, D84L, F87L
B7: ScaC-AF647 (AF647-labelled ScaC-SNAP) (domain or fragment)
chain: VSNMNLDISNMGEAREGLRKDIAEVSKLLCMLEKSTASSKNLTMRLQQSDTRENEQSNHIRLLITEIESINKENDCLRQKNNQLKIKLHQLKVKLEQALARNTDLQQILPKSQAEMDNLRKQNEQLKIQLQQLQVKLQDLMSLQNKCSNLALINSVKLNYIRDIKYIALANIVIVKALASTFTEKLSKSNR
modifications: Alexa Fluor 647 on the SNAP tag
B8: ScaC passenger domain (residues 33-223), purified (domain or fragment)
chain: B7 chain
B9: full-length mouse BICD2, Q921C5 1-820 (natural protein)
chain: T1 chain
B10: BICD2N (BICD2 residues 1-400) (domain or fragment)
chain: MSAPSEEEEYARLVMEAQPEWLRAEVKRLSHELAETTREKIQAAEYGLAVLEEKHQLKLQFEELEVDYEAIRSEMEQLKEAFGQAHTNHKKVAADGESREESLIQESASKEQYYVRKVLELQTELKQLRNVLTNTQSENERLTSVAQELKEINQNVEIQRGRLRDDIKEYKFREARLLQDYSELEEENISLQKQVSVLRQNQVEFEGLKHEIKRLEEETEYLNSQLEDAIRLKEISERQLEEALETLKTEREQKNNLRKELSHYMSINDSFYTSHLQVSLDGLKFSDDTVTAEPNNDAEALVNGFEHSGLVKSSLDNKTSTPRKDGLAPPSPSLVSDLLSELHISEIQKLKQQLVQMEREKVGLLATLQDTQKQLEQARGTLSEQHEKVNRLTENLSALR

In series [1] the target is T2, full-length mouse BICD2 (mouse, UniProt Q921C5 1-820). Nature of the series: SEC.
Series [2] concerns the target B8. Briefly: SEC. For orientation: SEC sorts molecules by how far they enter the pores of the column.
In series [3] the target is Rab6^Q72L (GTP-locked Rab6 mutant) (human, UniProt P20340 1-208, Q72L). Nature of the series: pull-down.
Series [4] has as its target B8. Nature of the series: pull-down.
Series [5] addresses BICD2-AF488 (AF488-labelled BICD2-SNAP) (mouse, UniProt Q921C5 1-820, Alexa Fluor 488 on the SNAP tag). Briefly: single-molecule TIRF co-migration on microtubules.
Series [6] concerns the target T2, full-length mouse BICD2. Nature of the series: SEC-MALS.
The series “SEC-MALS” concerns the molecule itself. Nature of the series: SEC-MALS.
Series [7] addresses T1, full-length mouse BICD2 (mouse), Q921C5. Nature of the series: SEC-MALS. Particulars: remark: other sources report otherwise.
Series [8] concerns the target BICD2C (BICD2 residues 342-800) (mouse, UniProt Q921C5 342-800). Nature of the series: SEC.

For orientation: stoichiometry N means a count of units in the complex or per binding partner.

Substitutions are numbered along the chain they refer to. Names may count otherwise.

Sequence of Rab6^Q72L (GTP-locked Rab6 mutant) (P20340 whole entry Q72L): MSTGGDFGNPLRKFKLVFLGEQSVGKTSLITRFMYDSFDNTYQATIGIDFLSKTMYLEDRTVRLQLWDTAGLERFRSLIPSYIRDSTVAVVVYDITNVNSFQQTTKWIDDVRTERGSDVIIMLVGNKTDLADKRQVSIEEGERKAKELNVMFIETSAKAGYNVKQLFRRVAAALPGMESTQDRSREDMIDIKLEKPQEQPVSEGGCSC

As to B1, the binding result in the series with full-length mouse BICD2 [1] is given as “binds”.

On to B2, for which the binding result in [2] was “binds”.

For B3, the binding result in series [3] and in [4] was “binds” each time. B4: in [4], the binding result is “binds”. As to B5, the binding result in series [4] is “binds”. The same measure, in the same setting: as for B6, the entry is “binds”.

Regarding B7, the binding result in [5] was “binds”.

For the molecule B8, the “stoichiometry N” value in the series with full-length mouse BICD2 [6] was 1 ScaC chains per BICD2 chain (2:2); in “SEC-MALS” it was 2. For B9, the stoichiometry N in [7] amounted to 2. With B10, the binding result in series [8] is given as “binds”.

The values are drawn from paper doi:10.1101/2024.04.11.589026 (bioRxiv, 2024).
